Source: US20070238677A1 (LOCOMOGENE, published 2007)

Target: FLAG-Synoviolin (UniProt Q86TM6 1-617, limits assumed)
Test: cell-based or functional assay

FLAG-Synoviolin, sequence (Q86TM6 whole entry): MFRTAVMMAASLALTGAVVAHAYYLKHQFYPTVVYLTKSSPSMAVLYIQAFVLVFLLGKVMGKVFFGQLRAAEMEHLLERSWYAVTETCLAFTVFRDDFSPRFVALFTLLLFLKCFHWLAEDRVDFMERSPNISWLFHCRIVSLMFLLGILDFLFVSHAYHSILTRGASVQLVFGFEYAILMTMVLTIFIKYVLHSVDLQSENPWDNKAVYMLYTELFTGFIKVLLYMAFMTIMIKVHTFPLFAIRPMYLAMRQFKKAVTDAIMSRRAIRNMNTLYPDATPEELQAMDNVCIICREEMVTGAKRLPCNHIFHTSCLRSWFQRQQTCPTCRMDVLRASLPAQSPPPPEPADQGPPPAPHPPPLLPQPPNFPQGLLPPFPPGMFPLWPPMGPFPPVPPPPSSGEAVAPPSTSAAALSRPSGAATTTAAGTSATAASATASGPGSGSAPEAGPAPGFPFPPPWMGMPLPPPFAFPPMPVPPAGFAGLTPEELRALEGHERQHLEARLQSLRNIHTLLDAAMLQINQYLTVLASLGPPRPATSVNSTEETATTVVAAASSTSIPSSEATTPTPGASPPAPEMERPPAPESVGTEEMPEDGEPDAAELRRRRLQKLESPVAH

B1: SP-HA-hsHRD3B (SEL1L/hsHRD3 with an HA-tag inserted immediately after the signal peptide) (other, not shown: small tags and cut ends)
chain: GSQDESLDSKTTLTSDESVKDHTTAGRVVAGQIFLDSEESELESSIQEEEDSLKSQEGESVTEDISFLESPNPENKDYEEPKKVRKPALTAIEGTAHGEPCHFPFLFLDKEYDECTSDGREDGRLWCATTYDYKADEKWGFCETEEEAAKRRQMQEAEMMYQTGMKILNGSNKKSQKREAYRYLQKAASMNHTKALERVSYALLFGDYLPQNIQAAREMFEKLTEEGSPKGQTALGFLYASGLGVNSSQAKALVYYTFGALGGNLIAHMVLGYRYWAGIGVLQSCESALTHYRLVANHVASDISLTGGSVVQRIRLPDEVENPGMNSGMLEEDLIQYYQFLAEKGDVQAQVGLGQLHLHGGRGVEQNHQRAFDYFNLAANAGNSHAMAFLGKMYSEGSDIVPQSNETALHYFKKAADMGNPVGQSGLGMAYLYGRGVQVNYDLALKYFQKAAEQGWVDGQLQLGSMYYNGIGVKRDYKQALKYFNLASQGGHILAFYNLAQMHASGTGVMRSCHTAVELFKNVCERGRWSERLMTAYNSYKDGDYNAAVIQYLLLAEQGYEVAQSNAAFILDQREASIVGENETYPRALLHWNRAASQGYTVARIKLGDYHFYGFGTDVDYETAFIHYRLASEQQHSAQAMFNLGYMHEKGLGIKQDIHLAKRFYDMAAEASPDAQVPVFLALCKLGVVYFLQYIRETNIRDMFTQLDMDQLLGPEWDLYLMTIIALLLGTVIAYRQRQHQDMPAPRPPGPRPAPPQQEGPPEQQPPQ
half-life of SEL1L/hsHRD3 (cycloheximide chase, Western blotting), in the absence of Synoviolin: 1.8 h
half-life of SEL1L/hsHRD3 (cycloheximide chase, Western blotting), with FLAG-Synoviolin co-expressed: 4.3 h
